The term Kd denotes the concentration at which binding is half-saturated. Lower therefore signals higher affinity.

Ends that are not written are not given here. * marks the point of attachment. Biotin = O=C1N[C@H]2[C@H](CS[C@H]2CCCCC(=O)*)N1

This is an account of results in patent publication US20140086924A1 (UNIVERSITY OF MASSACHUSETTS, published 2014).

In test [1] the target is T1, GST-Hsp90 (amino acids 1-732) (human, UniProt P07900 1-732).
T1 construct: also called Sepharose-GST-Hsp90; GST fusion of full length Hsp90; not shown: glutathione S-transferase (GST) frame of vector pGex-4T3
As to the kind of experiment: pull-down of 35S in vitro translated XIAP BIR3 with GST-Hsp90, autoradiography. The text has this: (§1) The cDNAs for XIAP and XIAP Baculovirus IAP Repeats (BIR) domains (BIR1, Met 1 to Ser 123; BIR2, Arg 124 to Pro 260; and BIR3, Ser 261 to Gln 336) were obtained from retro-transcription (SuperScript™ First Strand Synthesis System for RT-PCR, Invitrogen) of RNA extracted from HeLa cells (TRI Reagent™, Molecular Research Center Inc.), amplified by PCR, and cloned in pcDNA3 vector (Invitrogen). pcDNA3-XIAP and pcDNA3-XIAP BIR domains were translated in vitro using the TNT™ Quick Coupled Transcription/Translation System (Promega) in the presence of ³⁵S labeled methionine (Amersham), and 2, 5, and 8 μl of the reaction were incubated with 10 μg GST or GST fusion proteins as described above.
(§2) pcDNA3-XIAP and pcDNA3-XIAP BIR domains were translated in vitro as described in Example 4. […] GST-Hsp90 or GST was mixed with ³⁵S in vitro translated XIAP or its individual Baculovirus IAP Repeats: BIR1, BIR2, and BIR3. Reactions were centrifuged and proteins that associated with the pellet were detected by autoradiography.

The target in test [2] is T2, full length Hsp90alpha (human, UniProt P07900 1-732).
T2 construct: also called r-Hsp90; rHsp90
Briefly: surface plasmon resonance, biotin peptide on streptavidin chip, r-Hsp90 injected. How it is done:
Wild type Survivin peptide 77 to 91 (SEQ ID NO:22) or the corresponding C84A mutant 77-91 peptide ([…]; SEQ ID NO:23) was synthesized with an N-terminal biotin and immobilized on streptavidin coated chips (SA5) purchased from Biacore Inc. (Piscataway, N.J.). Increasing concentrations (100 nM-10 μM) of purified r-Hsp90 suspended in 10 mM HEPES, 150 mM NaCl, 3 mM EDTA, 0.005% polysorbate-20, 1 mM DTT, were then injected in […] over the immobilized peptides. A constant flow rate of […] was maintained, and the dissociation phase was followed for 300 seconds. Surfaces were regenerated using […] of 1 M NaCl/50 mM NaOH after each dissociation phase. A new injection cycle was initiated only after 10 min post-regeneration to ensure complete removal of NaCl and NaOH. The collected data were analyzed using the Biaeval 3.0 software package from Biacore Inc.
Sensorgrams (FIG. 10B) indicate binding of the Survivin peptides to Hsp90, measured by an increase in surface plasmon resonance during analyte flow over the chip surface, with the nonspecific signal from the biotin-only surface subtracted.
(Surface plasmon resonance follows binding to a sensor surface in real time, without labels.)

Test [3] has as its target T2, full length Hsp90alpha. As to the kind of experiment: competition ELISA, peptide inhibits the binding of recombinant survivin to Hsp90. (In general: ELISA stands for enzyme-linked immunosorbent assay.)
Test [4] deals with T1, GST-Hsp90 (amino acids 1-732). Briefly: pull-down of 35S in vitro translated XIAP BIR2 with GST-Hsp90, autoradiography.
Description: as §1, §2

The next test concerns the target T3, Hsp 27 (UniProt P04792 1-205).
T3 construct: Endogenous protein of Raji cells
As to the kind of experiment: affinity chromatography of Raji cell extracts on immobilized peptide, Western blot. The text has this: A Survivin Ile⁷⁴-Leu⁸⁷ peptide (SEQ ID NO:4) containing a binding site for Hsp90 was immobilized onto a Sulfolink™ Coupling Gel (Pierce, Rockport, Ill.), and used to fractionate Raji cell extracts. Proteins were identified in the flow trough (FT) or eluate (E) by Western blotting with the indicated antibodies. Hsp90 and Hsp70 clearly bound the Survivin peptide including residues Ile⁷⁴-Leu⁸⁷. The anti-Hsp70 antibodies were obtained from Abcam, Cambridge, Mass. (cat. No. ab6535).
In general terms: A western blot detects proteins with antibodies after separation by electrophoresis.

For test [5], the target named is T2, full length Hsp90alpha. As to the kind of experiment: competition ELISA: peptide (20 µg/ml) preincubated with Hsp90, then added to immobilized full length Survivin (the competitor). Here is the method: (§3) ELISA experiments were performed by immobilizing recombinant Survivin (r-Survivin) ([…]) or recombinant Hsp90 (r-Hsp90) (10 μg/ml) on plastic microtiter wells (Immulon™-2, Dynatech Laboratories, Chantilly, Va.) using bicarbonate buffer, pH 9.5 (100 μl/well) for 18 hours at 4° C. Bound protein was blocked with 3% gelatin for 1 hour at 37° C., rinsed with washing buffer (TBS pH 7.4, 0.1% Tween™, 0.1% BSA) and incubated for 1 hour at 37° C. with different concentrations of a test protein to determine if the test protein bound the immobilized protein.
ELISA experiments were performed essentially as in Example 2 with the following variations. 20 μg/ml of each recombinant Survivin peptide (expressed in E. coli) was preincubated with Hsp90 at 2.5 mg/ml for 16 hours at 4° C. After binding and blocking of full length Survivin to wells in a microtiter plate, the preincubated mixtures of Hsp90 and Survivin peptides were added to the wells and incubated for 1 hour at 37° C. Wells were washed, incubated with primary antibody, washed again, and bound antibody was quantified as described above. Each experiment was repeated three times and the standard deviation is shown. The twelve amino acid Survivin peptide including Lysine 79-Lysine 90 (K79-K90; SEQ ID NO:3) was an especially effective inhibitor of Hsp90-Survivin binding interactions.

The target in test [6] is T2, full length Hsp90alpha. As to the kind of experiment: ELISA, peptide immobilized, recombinant Hsp90 added, detection with anti-Hsp90 (n=2); no blank bar on the sheet. Here is the method:
Indicated synthetic peptides from the Survivin core sequence Lys 79-Leu 87 (SEQ ID NO:24) were synthesized carrying single alanine substitutions at each indicated position (alanine scanning mutagenesis). Individual peptides were immobilized at indicated increasing concentrations on plastic microtiter plates, incubated with recombinant Hsp90, and binding to the various substrates was determined with an antibody to Hsp90 by ELISA and quantified by absorbance at OD₄₀₅. […] In contrast, no differences were observed between the wild type peptide sequence and alanine substitutions of the residues flanking this sequence, Lys 79, Ala 85, Phe 86, and Leu 87.

The target of test [7] is T4, GST-C-Hsp90 (amino acids 629-732 of SEQ ID NO:21) (human, UniProt A5A6K9 630-733 (Pan troglodytes entry)).
T4 construct: not shown: glutathione S-transferase (GST) frame of vector pGex-4T3
As to the kind of experiment: ELISA, peptide immobilized at rising concentrations, Hsp90 C-terminal fragment added, detection with anti-Hsp90. Here is the method:
as §3
(§4) FIGS. 24A and 24B identify the location of P31 peptide's binding site as the N-terminus domain of Hsp90. The generation of recombinant Hsp90 fragments of the N-terminus or C-terminus is described in Example 3. ELISA experiments were performed as described in Example 2, except the indicated increasing concentrations of the P31 peptide (squares; SEQ ID NO:19) or control P33 peptide (circles; SEQ ID NO:25) were immobilized on plastic microtiter plates and incubated with the indicated Hsp90 N-terminal and C-terminal fragments. After washing, binding of the individual Hsp90 fragments to the immobilized peptides was detected with an antibody to Hsp90. Antibody to the C-terminal and N-terminal fragments of Hsp90 were obtained from BD/Transduction Laboratories and Santa Cruz Biotechnology, Inc. (Santa Cruz, Calif.), respectively.

The target in test [8] is T5, GST-N-Hsp90 (amino acids 1-272 of SEQ ID NO:21) (human, UniProt O02705 1-273 (pig entry)).
T5 construct: also called N-terminal domain of Hsp90; Hsp90 N-terminal fragment; not shown: glutathione S-transferase (GST) frame of vector pGex-4T3
Briefly: ELISA, peptide immobilized at rising concentrations, Hsp90 N-terminal fragment added, detection with anti-Hsp90. Here is the method: as §3, §4

T4 sequence (A5A6K9 630-733): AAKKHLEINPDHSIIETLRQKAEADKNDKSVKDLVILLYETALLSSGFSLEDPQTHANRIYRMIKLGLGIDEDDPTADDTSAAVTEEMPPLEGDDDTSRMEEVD
T3 sequence (P04792 whole entry): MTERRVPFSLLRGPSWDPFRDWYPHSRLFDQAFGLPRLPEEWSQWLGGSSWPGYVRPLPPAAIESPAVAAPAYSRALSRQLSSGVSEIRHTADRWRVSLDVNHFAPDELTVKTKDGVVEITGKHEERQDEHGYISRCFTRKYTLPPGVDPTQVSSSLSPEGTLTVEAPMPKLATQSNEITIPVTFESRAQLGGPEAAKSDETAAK

B1: XIAP BIR3 fragment (Ser 261 to Gln 336) (other, human, UniProt P98170 261-336, looked up)
chain: SMADYEARIFTFGTWIYSVNKEQLARAGFYALGEGDKVKCFHCGGGLTDWKPSEDPWEQHAKWYPGCKYLLEQKGQ
notes: range 261-336; 35S-labelled, in vitro translated
For the molecule B1, the binding result in test [1] was “no binding”.

B2: wild type Survivin peptide 77 to 91 (peptide)
peptide: Biotin-HKKHSSGCAFLSVKK
notes: Immobilized on streptavidin coated Biacore chips; also called wild type peptide
B2: in the test with full length Hsp90alpha [2], binding was put at a Kd of 83.8 nM and the “off-rate, fold slower than the C84A peptide (SEQ ID NO:23)” value stood at 10 fold.

B3: C84A mutant Survivin 77-91 peptide (peptide)
peptide: Biotin-HKKHSSGAAFLSVKK
notes: Immobilized on streptavidin coated Biacore chips; also called C84A peptide
Take B3: in the test with full length Hsp90alpha [2], the binding result is “binds”.
Regarding RQIKIWFQNRRMKWKKKHSSG [shorter cell permeable Survivin peptide (Antennapedia carrier sequence fused to Survivin K79-G83)], in the test with full length Hsp90alpha [3], the binding result is “binds”.

B4: XIAP BIR2 fragment (Arg 124 to Pro 260) (other, human, UniProt P98170 124-260, looked up)
chain: RDHFALDRPSETHADYLLRTGQVVDISDTIYPRNPAMYSEEARLKSFQNWPDYAHLTPRELASAGLYYTGIGDQVQCFCCGGKLKNWEPCDRAWSEHRRHFPNCFFVLGRNLNIRSESDAVSSDRNFPNSTNLPRNP
notes: range 124-260; 35S-labelled, in vitro translated
As for B4, in [4], the binding result is given as “no binding”.

B5: Survivin Ile74-Leu87 peptide (peptide)
peptide: IDDHKKHSSGCAFL
notes: Immobilized on Sulfolink Coupling Gel; also called Survivin peptide (Ile74-Leu87)
Turning to B5, in the test with Hsp 27, the binding result is “no binding”.

B6: Survivin peptide Lysine 79-Lysine 90 (peptide)
peptide: KHSSGCAFLSVK
notes: Called both synthetic and recombinant (expressed in E. coli) in the same paragraph; also called K79-K90
Consider B6, for which, in the test with full length Hsp90alpha [5], the binding result was “binds”.

B7: Survivin core sequence peptide Lys 79-Leu 87 (peptide)
peptide: KHSSGCAFL
notes: Synthetic, immobilized on plastic microtiter plates; also called Survivin peptide (K79-L87)
As to B7, the binding result with full length Hsp90alpha [6] was “binds”.
Same read-out and setting: to KHSSGCAFA (also called L87A) [Survivin Lys 79-Leu 87 peptide with alanine substitution of Leu 87] belongs “binds”.
As to KHSSGCAAL (also called F86A) [Survivin Lys 79-Leu 87 peptide with alanine substitution of Phe 86], the binding result with full length Hsp90alpha [6] is “binds”.
The same measure, in the same setting: next, AHSSGCAFL (also called K79A) [Survivin Lys 79-Leu 87 peptide with alanine substitution of Lys 79]: “binds”.

B8: P31 survivin peptide (Antennapedia carrier sequence fused to Survivin K79-L87) (peptide)
peptide: Biotin-RQIKIWFQNRRMKWKKKHSSGCAFL
notes: also called Survivin cell permeable peptide
As to B8, the binding result in [7] is listed as “no binding (tested: 0.25 mg/ml)”; with full length Hsp90alpha [3], “binds”; in [8] it was “binds”.
